{
  "source": "patent US20090099029A1",
  "about": "“Methods and substrates for conducting assays” (Invitrogen Corporation, priority 2005, published 2009)",
  "data": [
    {"tested_on": "kinases of Table 6 on Myelin Basic Protein (MBP)", "test": "Kinase assay using MBP substrate, ProQ Diamond stain (Table 6)", "format": "biochemical", "details": "kinase printed on MBP-coated slide; 20 uM ATP, 30° C.; ProQ Diamond Microarray Stain; graded Strong/Weak/Negative", "protocol": "In this illustrative example, four-well slides were designed with a hydrophobic mask surrounding 4-wells of aldehyde- or epoxy-coated glass (smooth or ES grade; Erie Scientific (Portsmouth, N.H.)). […] Bovine, dephosphorylated, Myelin Basic Protein (MBP) was purchased from Upstate Biotechnology (#13-110). MBP was diluted to 1 mg/ml in PBS, applied to the slide surface, covered with a coverslip, and left overnight at 4° C. to coat the slide with the MBP. Slides were washed 3 times with water and spun dry before printing.\nKinases were purchased from Panvera (Invitrogen, Carlsbad, Calif.), diluted in printing buffer (50 mM Tris pH 7.5, 25% glyercol, 0.05% TritonX-100, 2 mM DTT) and deposited using a GeneMachine OmniGrid100. Slides were stored at −20° C.\nReactions were performed following removal of the slide from the freezer. Reaction buffer (20 mM HEPES pH 7.5, 4 mM MgCl2, 2 mM DTT, 20 uM ATP, 5% DMSO) was added with or without inhibitor, a coverslip applied, and the slide placed at 30° C. for the appropriate reaction time. The slide was washed with water to stop the reaction (3 times) and spun dry. ProQ Diamond Microarray Stain (Invitrogen #P33706) was applied, covered with a coverslip, and the slide was incubated in the dark at room temperature for 30 minutes. The slide was destained and washed three times with water, and spun dry.", "values": [
      {"molecule": "DYRK3 (protein, left off: a dimerising Fc or GST) MGGTARGPGRKDAGPPGAGLPPQQRRLGDGVYDTFMMIDETKCPPCSNVLCNPSEPPPPRRLNMTTEQFTGDHTQHFLDGGEMKVEQLFQEFGNRKSNTIQSDGISDSEKCSPTVSQGKSSDCLNTVKSNSSSKAPKVVPLTPEQALKQYKHHLTAYEKLEIINYPEIYFVGPNAKKRHGVIGGPNNGGYDDADGAYIHVPRDHLAYRYEVLKIIGKGSFGQVARVYDHKLRQYVALKMVRNEKRFHRQAAEEIRILEHLKKQDKTGSMNVIHMLESFTFRNHVCMAFELLSIDLYELIKKNKFQGFSVQLVRKFAQSILQSLDALHKNKIIHCDLKPENILLKHHGRSSTKVIDFGSSCFEYQKLYTYIQSRFYRAPEIILGSRYSTPIDIWSFGCILAELLTGQPLFPGEDEGDQLACMMELLGMPPPKLLEQSKRAKYFINSKGIPRYCSVTTQADGRVVLVGGRSRRGKKRGPPGSKDWGTALKGCDDYLFIEFLKRCLHWDPSARLTPAQALRHPWISKSVPRPLTTIDKVSGKRVVNPASAFQGLGSKLPPVVGIANKLKANLMSETNGSIPLCSVLPKLIS", "MBP Kinase Activity": "Negative"},
      {"molecule": "DMPK (protein, left off: a dimerising Fc or GST) MSAEVRLRRLQQLVLDPGFLGLEPLLDLLLGVHQELGASELAQDKYVADFLQWAEPIVVRLKEVRLQRDDFEILKVIGRGAFSEVAVVKMKQTGQVYAMKIMNKWDMLKRGEVSCFREERDVLVNGDRRWITQLHFAFQDENYLYLVMEYYVGGDLLTLLSKFGERIPAEMARFYLAEIVMAIDSVHRLGYVHRDIKPDNILLDRCGHIRLADFGSCLKLRADGTVRSLVAVGTPDYLSPEILQAVGGGPGTGSYGPECDWWALGVFAYEMFYGQTPFYADSTAETYGKIVHYKEHLSLPLVDEGVPEEARDFIQRLLCPPETRLGRGGAGDFRTHPFFFGLDWDGLRDSVPPFTPDFEGATDTCNFDLVEDGLTAMVSGGGETLSDIREGAPLGVHLPFVGYSYSCMALRDSEVPGPTPMELEAEQLLEPHVQAPSLEPSVSPQDETAEVAVPAAVPAAEAEAEVTLRELQEALEEEVLTRQSLSREMEAIRTDNQNFASQLREAEARNRDLEAHVRQLQERMELLQAEGATAVTGVPSPRATDPPSHLDGPPAVAVGQCPLVGPGPMHRRHLLLPARVPRPGLSEALSLLLFAVVLSRAAALGCIGLVAHAGQLTAVWRRPGAARAP", "MBP Kinase Activity": "Negative"},
      {"molecule": "DAPK3(ZIPK) (protein, left off: a dimerising Fc or GST) MSTFRQEDVEDHYEMGEELGSGQFAIVRKCRQKGTGKEYAAKFIKKRRLSSSRRGVSREEIEREVNILREIRHPNIITLHDIFENKTDVVLILELVSGGELFDFLAEKESLTEDEATQFLKQILDGVHYLHSKRIAHFDLKPENIMLLDKNVPNPRIKLIDFGIAHKIEAGNEFKNIFGTPEFVAPEIVNYEPLGLEADMWSIGVITYILLSGASPFLGETKQETLTNISAVNYDFDEEYFSNTSELAKDFIRRLLVKDPKRRMTIAQSLEHSWIKAIRRRNVRGEDSGRKPERRRLKTTRLKEYTIKSHSSLPPNNSYADFERFSKVLEEAAAAEEGLRELQRSRRLCHEDVEALAAIYEEKEAWYREESDSLGQDLRRLRQELLKTEALKRQAQEEAKGALLGTSGLKRRFSRLENRYEALAKQVASEMRFVQDLVRALEQEKLQGVECGLR", "MBP Kinase Activity": "Negative"},
      {"molecule": "EPHA1 (protein, left off: a dimerising Fc or GST) RSRRAQRQRQQRQRDRATDVDREDKLWLKPYVDLQAYEDPAQGALDFTRELDPAWLMVDTVIGEGEFGEVYRGTLRLPSQDCKTVAIKTLKDTSPGGQWWNFLREATIMGQFSHPHILHLEGVVTKRKPIMIITEFMENGALDAFLREREDQLVPGQLVAMLQGIASGMNYLSNHNYVHRDLAARNILVNQNLCCKVSDFGLTRLLDDFDGTYETQGGKIPIRWTAPEAIAHRIFTTASDVWSFGIVMWEVLSFGDKPYGEMSNQEVMKSIEDGYRLPPPVDCPAPLYELMKNCWAYDRARRPHFQKLQAHLEQLLANPHSLRTIANFDPRMTLRLPSLSGSDGIPYRTVSEWLESIRMKRYILHFHSAGLDTMECVLELTAEDLTQMGITLPGHQKRILCSIQGFKD", "MBP Kinase Activity": "Strong"},
      {"molecule": "CSNK2A2 (protein, left off: a dimerising Fc or GST) MPGPAAGSRARVYAEVNSLRSREYWDYEAHVPSWGNQDDYQLVRKLGRGKYSEVFEAINITNNERVVVKILKPVKKKKIKREVKILENLRGGTNIIKLIDTVKDPVSKTPALVFEYINNTDFKQLYQILTDFDIRFYMYELLKALDYCHSKGIMHRDVKPHNVMIDHQQKKLRLIDWGLAEFYHPAQEYNVRVASRYFKGPELLVDYQMYDYSLDMWSLGCMLASMIFRREPFFHGQDNYDQLVRIAKVLGTEELYGYLKKYHIDLDPHFNDILGQHSRKRWENFIHSENRHLVSPEALDLLDKLLRYDHQQRLTAKEAMEHPYFYPVVKEQSQPCADNAVLSSGLTAAR", "MBP Kinase Activity": "Negative"},
      {"molecule": "GRK4 (protein, left off: a dimerising Fc or GST) MELENIVANSLLLKARQGGYGKKSGRSKKWKEILTLPPVSQCSELRHSIEKDYSSLCDKQPIGRRLFRQFCDTKPTLKRHIEFLDAVAEYEVADDEDRSDCGLSILDRFFNDKLAAPLPEIPPDVVTECRLGLKEENPSKKAFEECTRVAHNYLRGEPFEEYQESSYFSQFLQWKWLERQPVTKNTFRHYRVLGKGGFGEVCACQVRATGKMYACKKLQKKRIKKRKGEAMALNEKRILEKVQSRFVVSLAYAYETKDALCLVLTIMNGGDLKFHIYNLGNPGFDEQRAVFYAAELCCGLEDLQRERIVYRDLKPENILLDDRGHIRISDLGLATEIPEGQRVRGRVGTVGYMAPEVVNNEKYTFSPDWWGLGCLIYEMIQGHSPFKKYKEKVKWEEVDQRIKNDTEEYSEKFSEDAKSICRMLLTKNPSKRLGCRGEGAAGVKQHPVFKDINFRRLEANMLEPPFCPDPHAVYCKDVLDIEQFSVVKGIYLDTADEDFYARFATGCVSIPWQNEMIESGCFKDINKSESEEALPLDLDKNIHTPVSRPNRGFFYRLFRRGGCLTMVPSEKEVEPKQC", "MBP Kinase Activity": "Negative"},
      {"molecule": "DAPK2 (protein, left off: a dimerising Fc or GST) MFQASMRSPNMEPFKQQKVEDFYDIGEELGSGQFAIVKKCREKSTGLEYAAKFIKKRQSRASRRGVSREEIEREVSILRQVLHHNVITLHDVYENRTDVVLILELVSGGELFDFLAQKESLSEEEATSFIKQILDGVNYLHTKKIAHFDLKPENIMLLDKNIPIPHIKLIDFGLAHEIEDGVEFKNIFGTPEFVAPEIVNYEPLGLEADMWSIGVITYILLSGASPFLGDTKQETLANITAVSYDFDEEFFSQTSELAKDFIRKLLVKETRKRLTIQEALRHPWITPVDNQQAMVRRESVVNLENFRKQYVRRRWKLSFSIVSLCNHLTRSLMKKVHLRPDEDLRNCESDTEEDIARRKALHPRRRSSTS", "MBP Kinase Activity": "Negative"},
      {"molecule": "CSNK1D(CK1delta) (protein, left off: a dimerising Fc or GST) MELRVGNRYRLGRKIGSGSFGDIYLGTDIAAGEEVAIKLECVKTKHPQLHIESKIYKMMQGGVGIPTIRWCGAEGDYNVMVMELLGPSLEDLFNFCSRKFSLKTVLLLADQMISRIEYIHSKNFIHRDVKPDNFLMGLGKKGNLVYIIDFGLAKKYRDARTHQHIPYRENKNLTGTARYASINTHLGIEQSRRDDLESLGYVLMYFNLGSLPWQGLKAATKRQKYERISEKKMSTPIEVLCKGYPSEFATYLNFCRSLRFDDKPDYSYLRQLFRNLFHRQGFSYDYVFDWNMLKFGASRAADDAERERRDREERLRHSRNPATRGLPSTASGRLRGTQEVAPPTPLTPTSHTANTSPRPVSGMERERKVSMRLHRGAPVNISSSDLTGRQDTSRMSTSQNSIPFEHHGK", "MBP Kinase Activity": "Negative"},
      {"molecule": "EPHA2 (protein, left off: a dimerising Fc or GST) HRRRKNQRARQSPEDVYFSKSEQLKPLKTYVDPHTYEDPNQAVLKFTTEIHPSCVTRQKVIGAGEFGEVYKGMLKTSSGKKEVPVAIKTLKAGYTEKQRVDFLGEAGIMGQFSHHNIIRLEGVISKYKPMMIITEYMENGALDKFLREKDGEFSVLQLVGMLRGIAAGMKYLANMNYVHRDLAARNILVNSNLVCKVSDFGLSRVLEDDPEATYTTSGGKIPIRWTAPEAISYRKFTSASDVWSFGIVMWEVMTYGERPYWELSNHEVMKAINDGFRLPTPMDCPSAIYQLMMQCWQQERARRPKFADIVSILDKLIRAPDSLKTLADFDPRVSIRLPSTSGSEGVPFRTVSEWLESIKMQQYTEHFMAAGYTAIEKVVQMTNDDIKRIGVRLPGHQKRIAYSLLGLKDQVNTVGIPI", "MBP Kinase Activity": "Weak"},
      {"molecule": "CHEK1 (protein, left off: small tags and cut ends) MAVPFVEDWDLVQTLGEGAYGEVQLAVNRVTEEAVAVKIVDMKRAVDCPENIKKEICINKMLNHENVVKFYGHRREGNIQYLFLEYCSGGELFDRIEPDIGMPEPDAQRFFHQLMAGVVYLHGIGITHRDIKPENLLLDERDNLKISDFGLATVFRYNNRERLLNKMCGTLPYVAPELLKRREFHAEPVDVWSCGIVLTAMLAGELPWDQPSDSCQEYSDWKEKKTYLNPWKKIDSAPLALLHKILVENPSARITIPDIKKDRWYNKPLKKGAKRPRVTSGGVSESPSGFSKHIQSNLDFSPVNSASSEENVKYSSSQPEPRTGLSLWDTSPSYIDKLVQGISFSQPTCPDHMLLNSQLLGTPGSSQNPWQRLVKRMTRFFTKLDADKSYQCLKETCEKLGYQWKKSCMNQVTISTTDRRNNKLIFKVNLLEMDDKILVDFRLSKGDGLEFKRHFLKIKGKLIDIVSSQKIWLPAT", "MBP Kinase Activity": "Strong"}
    ]}
  ]
}
